Measurements reported in patent US10799584B2, “Combination therapies using agents that target tumor-associated stroma or tumor cells and alkylating agents” (BIOMED VALLEY DISCOVERIES, INC., priority 2014, dated 2020).

What was measured:
H460 tumors = assay: H460 xenograft model, M830 with gemcitabine, cisplatin or radiation; type: in vivo, nude mice; settings: endpoint 2000 mm^3 or Day 58; logrank
Source text: (§1) The statistical tests were not adjusted for multiple comparisons.
Treatment began on Day 1 in eight groups of nude mice (n=10) with established subcutaneous H460 tumors of 75-126 mm^3. […] The study endpoint was a tumor volume of 2000 mm^3 or the final day, Day 58, whichever came first. […] The median TTE for controls was 15.6 days, establishing a maximum possible TGD of 42.4 days (272%) for the 58-day study.

HCT116 tumor cells = assay: HCT116 colorectal carcinoma xenograft model, TEM8 antibodies; type: in vivo, mice; settings: HCT116 Colon; no combination partner; M830 IP 3 times per week; start at 60-80 mm^3
Experimental: Tumor cells were cultured in RPMI-1640 medium supplemented with 10% fetal bovine serum, 2 mM glutamine, 100 units/mL penicillin G sodium, 100 μg/mL streptomycin sulfate, and 25 μg/mL gentamicin. The tumor cells were grown in tissue culture flasks in a humidified incubator at 37° C., in an atmosphere of 5% CO2 and 95% air.
2.5×10^6 to 5×10^6 HCT116 tumor cells were injected subcutaneously into the flank of mice. Tumor weights were calculated following surgical removal. Treatment was initiated when tumor volume reached 60-80 mm^3. Dosing volume was 10 mL/kg (0.2 mL/20 g mouse).
TEM8 Ab (hIgG1) doses were 5 and 15 mg/kg, three times per week, for 3 weeks. Bevacizumab was dosed at 5 mg/kg, twice per week, for 3 weeks. FIG. 1B and FIG. 1D show mean tumor growth and percent body weight change for each group, respectively, over the time course of the study.

DLD-1 tumor cells = assay: DLD-1 colorectal adenocarcinoma xenograft model, first study; type: in vivo, mice; settings: DLD1 Colon, Day 21
Experimental: Tumor weights were calculated following surgical removal. […] Irinotecan was given once per week at 60 mg/kg i.v. and bevacizumab was dosed at 5 mg/kg i.p., three times per week.

H460 cells = assay: H460 non-small cell lung carcinoma xenograft model, M830 with bevacizumab or paclitaxel; type: in vivo, athymic nude mice; settings: for % Tumor Reduction vs. combination partner at Day (#): Day 32
Experimental: Animals were monitored for regression responses.
as §1
Cultured H460 cells were harvested during exponential growth and resuspended in phosphate buffered saline at a concentration of 1×10^8 cells/mL. 1.0×10^7 tumor cells were injected subcutaneously into the flank of athymic nude mice. Animals were euthanized when tumors reached the pre-determined volume endpoint of 2000 mm^3 or on the final day (Day 88), whichever came first.

[1] = combination partner Bevacizumab

Molecule: N.N.[Cl][Pt][Cl] [Cisplatin, cisplatin]
- outcome (survival) compared to vehicle-treated controls (H460 tumors): statistically significant survival benefit

Molecule: Nc1ccn([C@@H]2O[C@H](CO)[C@@H](O)C2(F)F)c(=O)n1 [gemcitabine]
- outcome (survival) compared to vehicle-treated controls (H460 tumors): not statistically different

B1: M830: TEM8 monoclonal antibody (hIgG1), VH SEQ ID NO:5, VL SEQ ID NO:6 (antibody, V domains shown)
VH: EVQLVESGGGVVQPGRSVRLSCAASGFTFSTYTMHWVRQAPGKGLEWVAIISNDGSNKYYADPVRGRFTISRDNSKNTLYLQMNSLRAEDTAVYYCVRGSSWYRGNWFDPWGQGTLVTVSS
VL: DIQMTQSPSSLSASVGDRVTIACRASQTISRYLNWYQQKPGKAPKLLIYAASSLQSGVSSRFSGSGSGTEFTLTISSLQPEDFATYFCQQTYSPPITFGQGTRLEIKR
modifications: TEM830 mAb VH; TEM830 mAb VL
- % Tumor Reduction vs. Vehicle at Day 21 (HCT116 tumor cells): 39.5%^
- % Tumor Reduction vs. combination partner at Day (#) (DLD-1 tumor cells; [1]): 48%
- % Tumor Reduction vs. combination partner at Day (#) (DLD-1 tumor cells; combination partner Irinotecan): 53%
- % Tumor Reduction vs. combination partner at Day (#) (H460 cells; [1]): 58.5%
- % Tumor Reduction vs. Vehicle at Day 21 (H460 cells; combination partner Bevacizumab, M830 IP 3 times per week): 94.5%^
- regression (vs. Vehicle at Day 21) (H460 cells; combination partner Paclitaxel): (−61%
- % Tumor Reduction vs. combination partner at Day (#) (H460 cells; combination partner Paclitaxel): 94%
- outcome (survival) compared to vehicle-treated controls (H460 tumors): not statistically different
